# Data reported in IntAct's records for PubMed 10202051.
# B1: Actin nucleation-promoting factor WAS (Homo sapiens), P42768 (parent)
# chain: MSGGPMGGRPGGRGAPAVQQNIPSTLLQDHENQRLFEMLGRKCLTLATAVVQLYLALPPGAEHWTKEHCGAVCFVKDNPQKSYFIRLYGLQAGRLLWEQELYSQLVYSTPTPFFHTFAGDDCQAGLNFADEDEAQAFRALVQEKIQKRNQRQSGDRRQLPPPPTPANEERRGGLPPLPLHPGGDQGGPPVGPLSLGLATVDIQNPDITSSRYRGLPAPGPSPADKKRSGKKKISKADIGAPSGFKHVSHVGWDPQNGFDVNNLDPDLRSLFSRAGISEAQLTDAETSKLIYDFIEDQGGLEAVRQEMRRQEPLPPPPPPSRGGNQLPRPPIVGGNKGRSGPLPPVPLGIAPPPPTPRGPPPPGRGGPPPPPPPATGRSGPLPPPPPGAGGPPMPPPPPPPPPPPSSGNGPAPPPLPPALVPAGGLAPGGGRGALLDQIRQGIQLNKTPGAPESSALQPPPQSSEGLVGALMHVMQKRSRAIHSSDEGEDQAGDEDEDDEWDD
# Variants of: B1
# Settings: with wipf1_human WIPF1, O43516
# Chain of wipf1_human WIPF1, O43516 (O43516 whole entry): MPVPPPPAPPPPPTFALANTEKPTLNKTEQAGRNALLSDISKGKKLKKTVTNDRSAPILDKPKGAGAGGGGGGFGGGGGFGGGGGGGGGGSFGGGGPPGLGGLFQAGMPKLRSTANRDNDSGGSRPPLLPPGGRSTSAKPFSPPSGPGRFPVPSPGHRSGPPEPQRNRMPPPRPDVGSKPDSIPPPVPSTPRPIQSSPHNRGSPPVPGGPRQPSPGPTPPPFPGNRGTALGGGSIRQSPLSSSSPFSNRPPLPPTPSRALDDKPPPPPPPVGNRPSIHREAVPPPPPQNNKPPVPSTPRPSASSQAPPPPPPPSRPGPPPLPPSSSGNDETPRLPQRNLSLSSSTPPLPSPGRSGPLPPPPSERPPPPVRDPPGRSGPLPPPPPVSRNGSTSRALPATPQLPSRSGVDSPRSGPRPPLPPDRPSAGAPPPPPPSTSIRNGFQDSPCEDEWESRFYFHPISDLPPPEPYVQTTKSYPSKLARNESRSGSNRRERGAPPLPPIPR
row,effect of a mutation on the interaction,Variant
1,decreasing interaction,MSGGPMGGRPGGRGAPAVQQNIPSTLLQDHENQRLFEMLGRKCLTLATAVVQLYLALPPGAEHWTKEHCGAVCFVKDNPQKSYFIRLYGLQAGRLLWEQELYSQLVCSTPTPFFHTFAGDDCQAGLNFADEDEAQAFRALVQEKIQKRNQRQSGDRRQLPPPPTPANEERRGGLPPLPLHPGGDQGGPPVGPLSLGLATVDIQNPDITSSRYRGLPAPGPSPADKKRSGKKKISKADIGAPSGFKHVSHVGWDPQNGFDVNNLDPDLRSLFSRAGISEAQLTDAETSKLIYDFIEDQGGLEAVRQEMRRQEPLPPPPPPSRGGNQLPRPPIVGGNKGRSGPLPPVPLGIAPPPPTPRGPPPPGRGGPPPPPPPATGRSGPLPPPPPGAGGPPMPPPPPPPPPPPSSGNGPAPPPLPPALVPAGGLAPGGGRGALLDQIRQGIQLNKTPGAPESSALQPPPQSSEGLVGALMHVMQKRSRAIHSSDEGEDQAGDEDEDDEWDD [Y107C]
2,decreasing interaction,MSGGPMGGRPGGRGAPAVQQNIPSTLLQDHENQRLFEMLGRKCLTLATAVVQLYLALPPGAEHWTKEHCGAVCFVKDNPQKSYFIHLYGLQAGRLLWEQELYSQLVYSTPTPFFHTFAGDDCQAGLNFADEDEAQAFRALVQEKIQKRNQRQSGDRRQLPPPPTPANEERRGGLPPLPLHPGGDQGGPPVGPLSLGLATVDIQNPDITSSRYRGLPAPGPSPADKKRSGKKKISKADIGAPSGFKHVSHVGWDPQNGFDVNNLDPDLRSLFSRAGISEAQLTDAETSKLIYDFIEDQGGLEAVRQEMRRQEPLPPPPPPSRGGNQLPRPPIVGGNKGRSGPLPPVPLGIAPPPPTPRGPPPPGRGGPPPPPPPATGRSGPLPPPPPGAGGPPMPPPPPPPPPPPSSGNGPAPPPLPPALVPAGGLAPGGGRGALLDQIRQGIQLNKTPGAPESSALQPPPQSSEGLVGALMHVMQKRSRAIHSSDEGEDQAGDEDEDDEWDD [R86H]
3,decreasing interaction,MSGGPMGGRPGGRGAPAVQQNIPSTLLQDHENQRLFEMLGRKCLTLATAVVQLYLALPPGAEHWTKEHCGAVCFVKDNPQKSYFIRLYGLQAGRLLWEQELYSQLVYSTPTPFFHTFAGDDCQAGLNFADEDETQAFRALVQEKIQKRNQRQSGDRRQLPPPPTPANEERRGGLPPLPLHPGGDQGGPPVGPLSLGLATVDIQNPDITSSRYRGLPAPGPSPADKKRSGKKKISKADIGAPSGFKHVSHVGWDPQNGFDVNNLDPDLRSLFSRAGISEAQLTDAETSKLIYDFIEDQGGLEAVRQEMRRQEPLPPPPPPSRGGNQLPRPPIVGGNKGRSGPLPPVPLGIAPPPPTPRGPPPPGRGGPPPPPPPATGRSGPLPPPPPGAGGPPMPPPPPPPPPPPSSGNGPAPPPLPPALVPAGGLAPGGGRGALLDQIRQGIQLNKTPGAPESSALQPPPQSSEGLVGALMHVMQKRSRAIHSSDEGEDQAGDEDEDDEWDD [A134T]
